How the values were obtained:
[1] = molecular target: PSGL-1/mIgG2b fusion protein co-expressed with porcine α1,3 galactosyltransferase (α-Gal substituted) (human; mouse) (UniProt Q14242); assay: sandwich ELISA, fusion protein made in CHO cells with α1,3GalT against the same made without α1,3GalT
[2] = molecular target: PSGL-1/mIgG2b fusion protein co-expressed with porcine α1,3 galactosyltransferase (α-Gal substituted) (human; mouse) (UniProt Q14242); assay: sandwich ELISA, fusion protein made in 293T cells with α1,3GalT against the same made without α1,3GalT
[3] = molecular target: PSGL-1/mIgG2b fusion protein co-expressed with porcine α1,3 galactosyltransferase (α-Gal substituted) (human; mouse) (UniProt Q14242); assay: sandwich ELISA, fusion protein made in COS cells with α1,3GalT against the same made in COS without α1,3GalT
[4] = molecular target: PSGL-1/mIgG2b fusion protein co-expressed in CHO-K1 cells with porcine α1,3GalT and core 2 β1,6 GlcNAc transferase (C2 GnTI) (human; mouse) (UniProt Q14242); assay: sandwich ELISA, fusion protein from CHO-K1 with α1,3GalT and C2 GnTI against fusion protein from CHO-K1 without α1,3GalT
[5] = molecular target: PSGL-1/mIgG2b fusion protein co-expressed in CHO-K1 cells with porcine α1,3GalT and core 2 β1,6 GlcNAc transferase (C2 GnTI) (human; mouse) (UniProt Q14242); assay: sandwich ELISA, fusion protein from CHO-K1 with α1,3GalT and C2 GnTI against fusion protein from CHO-K1 with α1,3GalT alone

fold increase in relative O.D. (GSA-reactivity/anti-mouse IgG reactivity) [1]: 1.8 fold
fold increase in relative O.D. (GSA-reactivity/anti-mouse IgG reactivity) [2]: 3.1 fold
fold increase in relative O.D. (GSA-reactivity/anti-mouse IgG reactivity) [3]: 5.3 fold
fold increase in α-Gal epitope density (relative O.D., GSA-reactivity/anti-mouse IgG reactivity) [4]: 13 fold
fold increase in α-Gal epitope density (relative O.D., GSA-reactivity/anti-mouse IgG reactivity) [5]: 7.4 fold
Substance: peroxidase-conjugated Griffonia (Bandeiraea) simplicifolia I isolectin B4 (cat.no. L-5391; Sigma)
